± gives the standard deviation of the averaged measurements.
Assays:
MCF7 = experiment: percentage of EdU-negative (G0-arrested) nuclei per well, 72 h; higher = more G0 arrest; conditions: reference: sequence is the full UniProt precursor, the tested protein was the secreted form or ectodomain
hTERT-HMEC = experiment: as above; conditions: reference: sequence is the full UniProt precursor, the tested protein was the secreted form or ectodomain
[1] = protein concentration 0.0225 µM
[2] = protein concentration 0.02372 µM
[3] = protein concentration 0.2372 µM
[4] = protein concentration 0.0175 µM
[5] = protein concentration 0.0283425 µM
[6] = protein concentration 0.283425 µM
[7] = protein concentration 0.01425 µM
[8] = protein concentration 0.1425 µM
[9] = protein concentration 0.03125 µM
[10] = protein concentration 0.3125 µM
[11] = protein concentration 0.0257143 µM
[12] = protein concentration 0.257143 µM
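Note: secreted proteins added to cultured cells, EdU pulse at the end, nuclei found by Hoechst imaging, EdU status from nuclear versus surrounding ring intensity ratio, PBS as neutral control.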

MALRRLGAALLLLPLLAAVEETLMDSTTATAELGWMVHPPSGWEEVSGYDENMNTIRTYQVCNVFESSQNNWLRTKFIRRRGAHRIHVEMKFSVRDCSSIPSVPGSCKETFNLYYYEADFDSATKTFPNWMENPWVKVDTIAADESFSQVDLGGRVMKINTEVRSFGPVSRSGFYLAFQDYGGCMSLIAVRVFYRKCPRIIQNGAIFQETLSGAESTSLVAARGSCIANAEEVDVPIKLYCNGDGEWLVPIGRCMCKAGFEAVENGTVCRGCPSGTFKANQGDEACTHCPINSRTTSEGATNCVCRNGYYRADLDPLDMPCTTIPSAPQAVISSVNETSLMLEWTPPRDSGGREDLVYNIICKSCGSGRGACTRCGDNVQYAPRQLGLTEPRIYISDLLAHTQYTFEIQAVNGVTDQSPFSPQFASVNITTNQAAPSAVSIMHQVSRTVDSITLSWSQPDQPNGVILDYELQYYEKELSEYNATAIKSPTNTVTVQGLKAGAIYVFQVRARTVAGYGRYSGKMYFQTMTEAEYQTSIQEKLPLIIGSSAAGLVFLIAVVVIAIVCNRRGFERADSEYTDKLQHYTSGHMTPGMKIYIDPFTYEDPNEAVREFAKEIDISCVKIEQVIGAGEFGEVCSGHLKLPGKREIFVAIKTLKSGYTEKQRRDFLSEASIMGQFDHPNVIHLEGVVTKSTPVMIITEFMENGSLDSFLRQNDGQFTVIQLVGMLRGIAAGMKYLADMNYVHRDLAARNILVNSNLVCKVSDFGLSRFLEDDTSDPTYTSALGGKIPIRWTAPEAIQYRKFTSASDVWSYGIVMWEVMSYGERPYWDMTNQDVINAIEQDYRLPPPMDCPSALHQLMLDCWQKDRNHRPKFGQIVNTLDKMIRNPNSLKAMAPLSSGINLPLLDRTIPDYTSFNTVDEWLEAIKMGQYKESFANAGFTSFDVVSQMMMEDILRVGVTLAGHQKKILNSIQVMRAQMNQIQSVEGQPLARRPRATGRTKRCQPRDVTKKTCNSNDGKKKGMGKKKTDPGRGREIQGIFFKEDSHKESNDCSCGG [Q6NVW1]
percentage of EdU-negative (MCF7; [1]): 25.8 ± 2.3% | percentage of EdU-negative (MCF7; protein concentration 0.225 µM): 26.5 ± 1% | percentage of EdU-negative (hTERT-HMEC; [1]): 5.5 ± 0.22% | percentage of EdU-negative (hTERT-HMEC; protein concentration 0.225 µM): 8.19 ± 1%

MGHRFLRGLLTLLLPPPPLYTRHRMLGPESVPPPKRSRSKLMAPPRIGTHNGTFHCDEALACALLRLLPEYRDAEIVRTRDPEKLASCDIVVDVGGEYDPRRHRYDHHQRSFTETMSSLSPGKPWQTKLSSAGLIYLHFGHKLLAQLLGTSEEDSMVGTLYDKMYENFVEEVDAVDNGISQWAEGEPRYALTTTLSARVARLNPTWNHPDQDTEAGFKRAMDLVQEEFLQRLDFYQHSWLPARALVEEALAQRFQVDPSGEIVELAKGACPWKEHLYHLESGLSPPVAIFFVIYTDQAGQWRIQCVPKEPHSFQSRLPLPEPWRGLRDEALDQVSGIPGCIFVHASGFIGGHRTREGALSMARATLAQRSYLPQIS [Q9HB07]
percentage of EdU-negative (MCF7; [1]): 26.7 ± 1.3% | percentage of EdU-negative (MCF7; protein concentration 0.225 µM): 27.2 ± 0.95% | percentage of EdU-negative (hTERT-HMEC; [1]): 4.42 ± 0.079% | percentage of EdU-negative (hTERT-HMEC; protein concentration 0.225 µM): 11 ± 1.7%

MGVCGYLFLPWKCLVVVSLRLLFLVPTGVPVRSGDATFPKAMDNVTVRQGESATLRCTIDDRVTRVAWLNRSTILYAGNDKWSIDPRVIILVNTPTQYSIMIQNVDVYDEGPYTCSVQTDNHPKTSRVHLIVQVPPQIMNISSDITVNEGSSVTLLCLAIGRPEPTVTWRHLSVKEGQGFVSEDEYLEISDIKRDQSGEYECSALNDVAAPDVRKVKITVNYPPYISKAKNTGVSVGQKGILSCEASAVPMAEFQWFKEETRLATGLDGMRIENKGRMSTLTFFNVSEKDYGNYTCVATNKLGNTNASITLYGPGAVIDGVNSASRALACLWLSGTLLAHFFIKF
percentage of EdU-negative (MCF7; [1]): 23.9 ± 0.79% | percentage of EdU-negative (MCF7; protein concentration 0.225 µM): 23.8 ± 1.2% | percentage of EdU-negative (hTERT-HMEC; [1]): 4.81 ± 0.74% | percentage of EdU-negative (hTERT-HMEC; protein concentration 0.225 µM): 5.39 ± 1.6%

MISPVLILFSSFLCHVAIAGRTCPKPDDLPFSTVVPLKTFYEPGEEITYSCKPGYVSRGGMRKFICPLTGLWPINTLKCTPRVCPFAGILENGAVRYTTFEYPNTISFSCNTGFYLNGADSAKCTEEGKWSPELPVCAPIICPPPSIPTFATLRVYKPSAGNNSLYRDTAVFECLPQHAMFGNDTITCTTHGNWTKLPECREVKCPFPSRPDNGFVNYPAKPTLYYKDKATFGCHDGYSLDGPEEIECTKLGNWSAMPSCKASCKVPVKKATVVYQGERVKIQEKFKNGMLHGDKVSFFCKNKEKKCSYTEDAQCIDGTIEVPKCFKEHSSLAFWKTDASDVKPC
percentage of EdU-negative (MCF7; [2]): 28.1 ± 0.39% | percentage of EdU-negative (MCF7; [3]): 24.5 ± 3.1% | percentage of EdU-negative (hTERT-HMEC; [2]): 5.35 ± 0.089% | percentage of EdU-negative (hTERT-HMEC; [3]): 5.3 ± 0.56%

MLLRGVLLALQALQLAGALDLPAGSCAFEESTCGFDSVLASLPWILNEEGHYIYVDTSFGKQGEKAVLLSPDLQAEEWSCLRLVYQITTSSESLSDPSQLNLYMRFEDESFDRLLWSAKEPSDSWLIASLDLQNSSKKFKILIEGVLGQGNTASIALFEIKMTTGYCIECDFEENHLCGFVNRWNPNVNWFVGGGSIRNVHSILPQDHTFKSELGHYMYVDSVYVKHFQEVAQLISPLTTAPMAGCLSFYYQIQQGNDNVFSLYTRDVAGLYEEIWKADRPGNAAWNLAEVEFSAPYPMEVIFEVAFNGPKGGYVALDDISFSPVHCQNQTELLFSAVEASCNFEQDLCNFYQDKEGPGWTRVKVKPNMYRAGDHTTGLGYYLLANTKFTSQPGYIGRLYGPSLPGNLQYCLRFHYAIYGFLKMSDTLAVYIFEENHVVQEKIWSVLESPRGVWMQAEITFKKPMPTKVVFMSLCKSFWDCGLVALDDITIQLGSCSSSEKLPPPPGECTFEQDECTFTQEKRNRSSWHRRRGETPTSYTGPKGDHTTGVGYYMYIEASHMVYGQKARLLSRPLRGVSGKHCLTFFYHMYGGGTGLLSVYLKKEEDSEESLLWRRRGEQSISWLRALIEYSCERQHQIIFEAIRGVSIRSDIAIDDVKFQAGPCGEMEDTTQQSSGYSEDLNEIEY [Q7Z304]
percentage of EdU-negative (MCF7; [4]): 28.1 ± 1.3% | percentage of EdU-negative (MCF7; protein concentration 0.175 µM): 31.9 ± 1.8% | percentage of EdU-negative (hTERT-HMEC; [4]): 5.68 ± 0.56% | percentage of EdU-negative (hTERT-HMEC; protein concentration 0.175 µM): 8.11 ± 0.92%

MSEVPVARVWLVLLLLTVQVGVTAGAPWQCAPCSAEKLALCPPVSASCSEVTRSAGCGCCPMCALPLGAACGVATARCARGLSCRALPGEQQPLHALTRGQGACVQESDASAPHAAEAGSPESPESTEITEEELLDNFHLMAPSEEDHSILWDAISTYDGSKALHVTNIKKWKEPCRIELYRVVESLAKAQETSGEEISKFYLPNCNKNGFYHSRQCETSMDGEAGLCWCVYPWNGKRIPGSPEIRGDPNCQIYFNVQN
percentage of EdU-negative (MCF7; [5]): 24.4 ± 0.48% | percentage of EdU-negative (MCF7; [6]): 29.6 ± 4% | percentage of EdU-negative (hTERT-HMEC; [5]): 5.41 ± 0.56% | percentage of EdU-negative (hTERT-HMEC; [6]): 9.21 ± 1.1%

MKITSTSCICPVLVCLCFVQRCYGTAHHSSIKVMRNQTKHIEGETEVHHRPKRGWVWNQFFVLEEHMGPDPQYVGKLHSNSDKGDGSVKYILTGEGAGTIFIIDDTTGDIHSTKSLDREQKTHYVLHAQAIDRRTNKPLEPESEFIIKVQDINDNAPKFTDGPYIVTVPEMSDMGTSVLQVTATDADDPTYGNSARVVYSILQGQPYFSVDPKTGVIRTALHNMDREAREHYSVVIQAKDMAGQVGGLSGSTTVNITLTDVNDNPPRFPQKHYQLYVPESAQVGSAVGKIKANDADTGSNADMTYSIINGDGMGIFSISTDKETREGILSLKKPLNYEKKKSYTLNIEGANTHLDFRFSHLGPFKDATMLKIIVGDVDEPPLFSMPSYLMEVYENAKIGTVVGTVLAQDPDSTNSLVRYFINYNVEDDRFFNIDANTGTIRTTKVLDREETPWYNITVTASEIDNPDLLSHVTVGIRVLDVNDNPPELAREYDIIVCENSKPGQVIHTISATDKDDFANGPRFNFFLDERLPVNPNFTLKDNEDNTASILTRRRRFSRTVQDVYYLPIMISDGGIPSLSSSSTLTIRVCACERDGRVRTCHAEAFLSSAGLSTGALIAILLCVLILLAIVVLFITLRRSKKEPLIISEEDVRENVVTYDDEGGGEEDTEAFDITALRNPSAAEELKYRRDIRPEVKLTPRHQTSSTLESIDVQEFIKQRLAEADLDPSVPPYDSLQTYAYEGQRSEAGSISSLDSATTQSDQDYHYLGDWGPEFKKLAELYGEIESERTT
percentage of EdU-negative (MCF7; [7]): 26 ± 2.9% | percentage of EdU-negative (MCF7; [8]): 37 ± 4.3% | percentage of EdU-negative (hTERT-HMEC; [7]): 5.06 ± 0.45% | percentage of EdU-negative (hTERT-HMEC; [8]): 7.93 ± 0.73%

MAWASRLGLLLALLLPVVGASTPGTVVRLNKAALSYVSEIGKAPLQRALQVTVPHFLDWSGEALQPTRIRILNVHVPRLHLKFIAGFGVRLLAAANFTFKVFRAPEPLELTLPVELLADTRVTQSSIRTPVVSISACSLFSGHANEFDGSNSTSHALLVLVQKHIKAVLSNKLCLSISNLVQGVNVHLGTLIGLNPVGPESQIRYSMVSVPTVTSDYISLEVNAVLFLLGKPIILPTDATPFVLPRHVGTEGSMATVGLSQQLFDSALLLLQKAGALNLDITGQLRSDDNLLNTSALGRLIPEVARQFPEPMPVVLKVRLGATPVAMLHTNNATLRLQPFVEVLATASNSAFQSLFSLDVVVNLRLQLSVSKVKLQGTTSVLGDVQLTVASSNVGFIDTDQVRTLMGTVFEKPLLDHLNALLAMGIALPGVVNLHYVAPEIFVYEGYVVISSGLFYQS [Q8N4F0]
percentage of EdU-negative (MCF7; [1]): 25.8 ± 3.4% | percentage of EdU-negative (MCF7; protein concentration 0.225 µM): 34.57 ± 0.04% | percentage of EdU-negative (hTERT-HMEC; [1]): 5.06 ± 0.73% | percentage of EdU-negative (hTERT-HMEC; protein concentration 0.225 µM): 15.4 ± 0.54%

MELQPPEASIAVVSIPRQLPGSHSEAGVQGLSAGDDSELGSHCVAQTGLELLASGDPLPSASQNAEMIETGSDCVTQAGLQLLASSDPPALASKNAEVTGTMSQDTEVDMKEVELNELEPEKQPMNAASGAAMSLAGAEKNGLVKIKVAEDEAEAAAAAKFTGLSKEELLKVAGSPGWVRTRWALLLLFWLGWLGMLAGAVVIIVRAPRCRELPAQKWWHTGALYRIGDLQAFQGHGAGNLAGLKGRLDYLSSLKVKGLVLGPIHKNQKDDVAQTDLLQIDPNFGSKEDFDSLLQSAKKKSIRVILDLTPNYRGENSWFSTQVDTVATKVKDALEFWLQAGVDGFQVRDIENLKDASSFLAEWQNITKGFSEDRLLIAGTNSSDLQQILSLLESNKDLLLTSSYLSDSGSTGEHTKSLVTQYLNATGNRWCSWSLSQARLLTSFLPAQLLRLYQLMLFTLPGTPVFSYGDEIGLDAAALPGQPMEAPVMLWDESSFPDIPGAVSANMTVKGQSEDPGSLLSLFRRLSDQRSKERSLLHGDFHAFSAGPGLFSYIRHWDQNERFLVVLNFGDVGLSAGLQASDLPASASLPAKADLLLSTQPGREEGSPLELERLKLEPHEGLLLRFPYAA
percentage of EdU-negative (MCF7; [9]): 23.1 ± 0.58% | percentage of EdU-negative (MCF7; [10]): 27.1 ± 0.54% | percentage of EdU-negative (hTERT-HMEC; [9]): 5.08 ± 0.89% | percentage of EdU-negative (hTERT-HMEC; [10]): 8.07 ± 1.1%

MPGPWLLLALALTLNLTGVPGGRAQPEAAQQEAVTAAEHPGLDDFLRQVERLLFLRENIQRLQGDQGEHSASQIFQSDWLSKRQHPGKREEEEEEGVEEEEEEEGGAVGPHKRQHPGRREDEASWSVDVTQHKRQHPGRRSPWLAYAVPKRQHPGRRLADPKAQRSWEEEEEEEEREEDLMPEKRQHPGKRALGGPCGPQGAYGQAGLLLGLLDDLSRSQGAEEKRQHPGRRAAWVREPLEE
percentage of EdU-negative (MCF7; [11]): 23.3 ± 4.8% | percentage of EdU-negative (MCF7; [12]): 25.8 ± 1.8% | percentage of EdU-negative (hTERT-HMEC; [11]): 5.72 ± 0.18% | percentage of EdU-negative (hTERT-HMEC; [12]): 5.31 ± 0.67%

— the supplement of paper PMC11316812
